Assay results taken from patent US20250263469A1 (HOSPITAL FOR SICK CHILDREN, published 2025).

Columns and labels:
[1] = target: Spike of authentic SARS-CoV-2/SB2-P4-PB virus (SARS-CoV-2, UniProt P0DTC2 14-1273); experiment: cell-based or functional assay
[2] = target: SARS-CoV-2 Spike N439K on pseudotyped virus (SARS-CoV-2, UniProt P0DTC2 14-1273); experiment: cell-based or functional assay
[3] = target: SARS-CoV-2 Spike D614G on pseudotyped virus (SARS-CoV-2, UniProt P0DTC2 14-1273); experiment: cell-based or functional assay
[4] = target: SARS-CoV-2 Spike L452R on pseudotyped virus (SARS-CoV-2, UniProt P0DTC2 14-1273); experiment: cell-based or functional assay
[5] = target: SARS-CoV-2 Spike A475V on pseudotyped virus (SARS-CoV-2, UniProt P0DTC2 14-1273); experiment: cell-based or functional assay
[6] = target: SARS-CoV-2 Spike V483A on pseudotyped virus (SARS-CoV-2, UniProt P0DTC2 14-1273); experiment: cell-based or functional assay
[7] = target: T1, SARS-CoV-2 receptor binding domain (RBD), wild type (BEI NR52309) (SARS-CoV-2, UniProt P0DTC2 319-541); experiment: BLI competition on His-tagged RBD, signal of the 2nd Ab after 1st Ab 236
[8] = target: T1, SARS-CoV-2 receptor binding domain …; experiment: BLI competition on His-tagged RBD, signal of the 2nd Ab after 1st Ab 298
[9] = target: T1, SARS-CoV-2 receptor binding domain …; experiment: BLI competition on His-tagged RBD, signal of the 2nd Ab after 1st Ab 324

| Binder | IC50 SARS-CoV2/SB2-P4-PB (authentic virus), IgG [1] [µg/mL] | Potency change vs WT PsV [2] [fold] | Potency change vs WT PsV [3] [fold] | IC50 (PsV neutralisation) [4] [µg/mL] | Potency change vs WT PsV [5] [fold] | Potency change vs WT PsV [6] [fold] | RBD binding [7] | RBD binding [8] | RBD binding [9] | Potency change vs WT PsV [4] [fold] |
| --- | --- | --- | --- | --- | --- | --- | --- | --- | --- | --- |
| mAb 46 (antibody, V domains shown) VH: EVQLLESGGGLVQPGRSLRLSCAASGFTFSSYAMSWVRQAPGKGLEWVSTIYSGGSTYYADSVKGRFTISRDNSKNTLYLQMNSLRAEDTAVYYCARGDSRDAFDIWGQGTMVTVSS VL: DIQMTQSPSSLSASVGDRVTITCRASQSISSWLAWYQQKPGKAPKLLIYDASNLETGVPSRFSGSGSGTDFTLTISSLQPEDFATYYCQQSYSTPFTFGPGTKVDIKR | 19 | 4.1 | 1.9 | > 100 | 1.9 | 2 | 1.7 | 1.7 | 1.7 |  |
| mAb 82 (antibody, V domains shown) VH: QVQLVQSGAEVKKPGASVKVSCKASGGSFSTSAFYWVRQAPGQGLEWMGWINPYTGGTNYAQKFQGRVTMTRDTSTSTVYMELSSLRSEDTAVYYCARSRALYGSGSYFDYWGQGTLVTVSS VL: DIQMTQSPSSLSASVGDRVTITCRASQVISNYLAWYQQKPGKAPKLLIYDASNLETGVPSRFSGSGSGTDFTLTISSLQPEDFATYYCQQSFSPPPTFGQGTRLEIKR |  | 1.1 |  |  | -5.7 | 0.2 |  | 0.5 | 0.8 | -8.1 |
| mAb 324 (antibody, V domains shown) VH: QVQLVQSGAEVKKPGASVKVSCKASGGTFNNYGISWVRQAPGQGLEWMGWMNPNSGNTGYAQKFQGRVTMTRDTSTSTVYMELSSLRSEDTAVYYCARVGDYGDYIVSPFDLWGRGTLVTVSS VL: DIQMTQSPSSLSASVGDRVTITCRASQSITTYLNWYQQKPGKAPKLLIYDASNLETGVPSRFSGSGSGTDFTLTISSLQPEDFATYYCQQSYSTPPTFGQGTKVEIKR | 21 | -1 | 2.6 |  | -0.6 | -0.4 | 0.3 |  | 0.4 | 0.8 |
| mAb 236 (antibody, V domains shown) VH: QVQLVQSGAEVKKPGASVKVSCKASGGTFTSYGINWVRQAPGQGLEWMGWMNPNSGNTGYAQKFQGRVTMTRDTSTSTVYMELSSLRSEDTAVYYCASRGIQLLPRGMDVWGQGTTVTVSS VL: not shown | 5.5 | 2.1 | 0.7 |  | 1.4 | 1.9 | 0.3 |  | 0.4 | -0.6 |
| mAb 52 (antibody, V domains shown) VH: QVQLVQSGAEVKKPGSSVKVSCKASGYTFTSYGISWVRQAPGQGLEWMGGIIPMFGTTNYAQKFQGRVTITADKSTSTAYMELSSLRSEDTAVYYCARDRGDTIDYWGQGTLVTVSS VL: DIQMTQSPSSLSASVGDRVTITCRASQGISNNLNWYQQKPGKAPKLLIYAASSLESGVPSRFSGSGSGTDFTLTISSLQPEDFATYYCQQGNGFPLTFGPGTKVDIKR | 6.2 | 1.8 | 0.4 | > 100 | 1.1 |  | 1.5 | 1.4 | 1.5 |  |
